Data taken from the Immune Epitope Database (IEDB).

Key:
[1] = target: HLA-A*30:01; experiment: IEDB peptide-MHC binding, purified MHC/competitive/fluorescence; filed as Kd, often an IC50 or EC50 that approximates it; ≥ and ≤ were set here for values at or beyond the usual limits of such assays
[2] = target: HLA-B*15:17; experiment: as above
[3] = target: HLA-A*26:03; experiment: as above
[4] = target: HLA-A*11:01; experiment: IEDB peptide-MHC binding, purified MHC/direct/fluorescence; filed as Kd, often an IC50 or EC50 that approximates it; ≥ and ≤ were set here for values at or beyond the usual limits of such assays
[5] = target: HLA-B*08:01; experiment: as above; conditions: source organism: Vibrio cholerae V52
[6] = target: HLA-A*68:02; experiment: as above; conditions: source organism: Vibrio cholerae
[7] = target: HLA-B*07:02; experiment: as above; conditions: source organism: Vibrio cholerae
[8] = target: HLA-A*02:01; experiment: as above
[9] = target: HLA-A*31:01; experiment: as above
[10] = target: HLA-B*18:01; experiment: as above
[11] = target: HLA-A*26:01; experiment: as above
[12] = target: HLA-A*01:01; experiment: as above
[13] = target: HLA-B*08:02; experiment: as above
[14] = target: HLA-B*48:01; experiment: as above; conditions: source organism: Vibrio cholerae
[15] = target: HLA-A*26:02; experiment: as above; conditions: source organism: Vibrio cholerae V52
[16] = target: HLA-B*58:01; experiment: as above
[17] = target: HLA-B*46:01; experiment: as above; conditions: source organism: Vibrio cholerae
[18] = target: HLA-B*27:05; experiment: as above
[19] = target: HLA-B*40:01; experiment: as above
[20] = target: HLA-A*03:01; experiment: as above
[21] = target: HLA-B*57:01; experiment: as above
[22] = target: HLA-B*15:01; experiment: as above; conditions: source organism: Vibrio cholerae
[23] = target: HLA-B*40:02; experiment: IEDB peptide-MHC binding, cellular MHC/competitive/fluorescence; ≥ and ≤ were set here for values at or beyond the usual limits of such assays; conditions: source organism: Homo sapiens
[24] = target: HLA-A*68:02; experiment: IEDB peptide-MHC binding, purified MHC/competitive/fluorescence; filed as Kd, often an IC50 or EC50 that approximates it; ≥ and ≤ were set here for values at or beyond the usual limits of such assays
[25] = target: HLA-B*35:01; experiment: as above; conditions: source organism: Candida albicans SC5314
[26] = target: HLA-B*07:02; experiment: as above
[27] = target: HLA-B*18:01; experiment: as above; conditions: source organism: Candida albicans SC5314
[28] = target: HLA-A*26:01; experiment: as above; conditions: source organism: Candida albicans SC5314
[29] = target: HLA-A*01:01; experiment: as above; conditions: source organism: Candida albicans SC5314
[30] = target: HLA-B*48:01; experiment: as above; conditions: source organism: Candida albicans SC5314
[31] = target: HLA-A*26:02; experiment: as above; conditions: source organism: Candida albicans SC5314
[32] = target: HLA-A*02:06; experiment: as above
[33] = target: HLA-B*27:05; experiment: as above; conditions: source organism: Candida albicans SC5314
[34] = target: HLA-B*57:01; experiment: as above; conditions: source organism: Candida albicans SC5314
[35] = target: HLA-B*15:01; experiment: as above
[36] = target: HLA-A*69:01; experiment: IEDB peptide-MHC binding, purified MHC/direct/fluorescence; filed as Kd, often an IC50 or EC50 that approximates it; ≥ and ≤ were set here for values at or beyond the usual limits of such assays; conditions: source organism: Camelpox virus M-96
[37] = target: HLA-B*83:01; experiment: IEDB peptide-MHC binding, purified MHC/competitive/fluorescence; filed as Kd, often an IC50 or EC50 that approximates it; ≥ and ≤ were set here for values at or beyond the usual limits of such assays; conditions: source organism: Yersinia pestis KIM10+
[38] = target: HLA-A*11:01; experiment: as above; conditions: source organism: Yersinia pestis KIM10+
[39] = target: HLA-A*02:01; experiment: as above; conditions: source organism: Yersinia pestis KIM10+
[40] = target: HLA-C*06:02; experiment: as above; conditions: source organism: Yersinia pestis KIM10+
[41] = target: HLA-B*45:06; experiment: as above; conditions: source organism: Yersinia pestis KIM10+
[42] = target: HLA-B*15:42; experiment: as above; conditions: source organism: Yersinia pestis KIM10+
[43] = target: HLA-A*02:03; experiment: as above; conditions: source organism: Yersinia pestis KIM10+
[44] = target: HLA-B*39:01; experiment: as above; conditions: source organism: Yersinia pestis KIM10+
[45] = target: HLA-B*27:20; experiment: as above; conditions: source organism: Yersinia pestis KIM10+
[46] = target: HLA-B*73:01; experiment: IEDB peptide-MHC binding, purified MHC/direct/fluorescence; filed as Kd, often an IC50 or EC50 that approximates it; ≥ and ≤ were set here for values at or beyond the usual limits of such assays; conditions: source organism: Yersinia pestis CA88-4125
[47] = target: HLA-B*15:09; experiment: as above; conditions: source organism: Yersinia pestis CA88-4125
[48] = source organism: Vibrio cholerae 2740-80
[49] = source organism: Vibrio cholerae
[50] = source organism: Vibrio cholerae V52
[51] = source organism: Candida albicans SC5314
[52] = source organism: Camelpox virus M-96
[53] = source organism: Yersinia pestis KIM10+
[54] = source organism: Yersinia pestis

AADFPGIAR
Kd [1, 48]: 2110 nM
Kd [2, 48]: ≥ 20000 nM
Kd [3, 48]: ≥ 20000 nM
Kd [4, 49]: 164 nM
Kd [5]: ≥ 20000 nM
Kd [6]: ≥ 20000 nM
Kd [7]: ≥ 20000 nM
Kd [8, 49]: ≥ 20000 nM
Kd [9, 49]: 6300 nM
Kd [10, 49]: ≥ 20000 nM
Kd [11, 50]: ≥ 20000 nM
Kd [12, 49]: ≥ 20000 nM
Kd [13, 50]: ≥ 20000 nM
Kd [14]: ≥ 20000 nM
Kd [15]: ≥ 20000 nM
Kd [16, 49]: ≥ 20000 nM
Kd [17]: ≥ 20000 nM
Kd [18, 49]: ≥ 20000 nM
Kd [19, 49]: ≥ 20000 nM
Kd [20, 49]: 1000 nM
Kd [21, 49]: ≥ 20000 nM
Kd [22]: ≥ 20000 nM

REASPSRLS
IC50 [23]: 1900 nM

REFSKEPEL
IC50 [23]: 800 nM

RVYNNTARY
Kd [24, 51]: ≥ 20000 nM
Kd [25]: 159 nM
Kd [26, 51]: ≥ 20000 nM
Kd [27]: ≥ 20000 nM
Kd [28]: 76.8 nM
Kd [29]: ≥ 20000 nM
Kd [30]: ≥ 20000 nM
Kd [31]: 528 nM
Kd [32, 51]: ≥ 20000 nM
Kd [2, 51]: 1.5 nM
Kd [33]: ≥ 20000 nM
Kd [34]: 655 nM
Kd [3, 51]: ≥ 20000 nM
Kd [35, 51]: 187 nM
Kd [4, 52]: 22.5 nM
Kd [36]: ≥ 20000 nM
Kd [8, 52]: ≥ 20000 nM
Kd [9, 52]: 432 nM
Kd ([13]; source organism: Variola virus): ≥ 20000 nM
Kd [16, 52]: 16 nM
Kd [19, 52]: ≥ 20000 nM
Kd [20, 52]: 50.7 nM

SRWAISHWL
Kd [37]: ≥ 5000 nM
Kd [38]: ≥ 20000 nM
Kd [24, 53]: ≥ 20000 nM
Kd [1, 53]: 2690 nM
Kd [26, 53]: ≥ 20000 nM
Kd [39]: 76.2 nM
Kd [40]: 82.2 nM
Kd [41]: ≥ 5000 nM
Kd [42]: ≥ 5000 nM
Kd [43]: 205 nM
Kd [44]: 36.3 nM
Kd [32, 53]: 8.6 nM
Kd [45]: 4.8 nM
Kd [35, 53]: 1840 nM
Kd [9, 54]: ≥ 20000 nM
Kd [10, 54]: ≥ 20000 nM
Kd ([11]; source organism: Yersinia pestis CA88-4125): ≥ 20000 nM
Kd [12, 54]: ≥ 20000 nM
Kd [16, 54]: ≥ 20000 nM
Kd [46]: 167 nM
Kd [18, 54]: 20.3 nM
Kd [47]: ≥ 20000 nM
Kd [21, 54]: ≥ 20000 nM
